± gives the half width of the 95% confidence interval.
What was measured:
[1] = folding stability dG unfold from trypsin proteolysis; higher = more stable
Method in brief: (§1)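 Unfolding free energy was derived, per protease or combined, against a sequence-predicted unfolded-state K50 and a shared folded-state K50, starting from K50 inferred by Bayesian fitting of sequencing counts. Digestion with trypsin and chymotrypsin was carried out on designed mini-proteins under 80 residues without cysteine in a PA-tagged cDNA display construct. Only designs with AlphaFold2 dimer inter-PAE above 15 were kept.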

[2] = folding stability dG unfold (combined trypsin and chymotrypsin); higher = more stable
Method in brief: as §1

[3] = folding stability dG unfold from chymotrypsin proteolysis; higher = more stable
Method in brief: as §1

Row | Sequence | folding stability dG unfold [1] [kcal/mol] | folding stability dG unfold [2] [kcal/mol] | folding stability dG unfold [3] [kcal/mol]
1 | DDNQEYEYENPGGMKMRVEYNPSTGNMKVEMEPVPPVPPIPPIMIPLDLTPEQANRLINELQDLGIPIMVGS [r1_242_TrROS] | 0.906 ± 0.06 | 1.16 ± 0.16 | 1.33 ± 0.086
2 | SAGGKKKKLVIKDKKTNKYYEIENAKEIVKIEKVKGKDGKTYYVIYFKKTKKKIVIKTKEDLEKALKSAGGS [r8_206_TrROS_Hall] | 1.26 ± 0.24 | 1.23 ± 0.29 | 1.18 ± 0.38
3 | SAGGPWVVIKIRTPNKPIEIPIPGFKIENTGDSMTIVFPPDDPDQVLDALEKASPGIKITKIEVVKPSAGGS [r8_490_TrROS] | 0.65 ± 0.06 | 0.575 ± 0.1 | 0.318 ± 0.12
4 | SMTVVTVEKTPDGGVTITVYVPETGEEVEIPVTDPEVQKKATEDPNTTVKVPKEVLESFYPDRITSLSYTSA [r9_390_JUSTAS] | 0.134 ± 0.098 | 0.0747 ± 0.19 | -0.169 ± 0.22
5 | SAGGMEVTFPVSPDLSPEEVRARIEAEIRPIAEARGAVDVEVPIVEYRRLPPDSVEFRFKVTVRFPRSAGGS [r8_184_JUSTAS] | 1.94 ± 0.089 | 2.33 ± 0.11 | 2.4 ± 0.052
6 | SAGGSAGGSAGGSSSIYYDPRYPNVAVNPETGEAVTGIPLEELEKLGATPVGPDWVRIDSAGGSAGGSAGGS [r4_306_TrMRF] | -0.659 ± 0.15 | -0.0656 ± 0.13 | 0.196 ± 0.061
7 | SAGGSASVKVEITEIKSSNPESSSNKIDIPVKVYDPETGKEVLSVEEIAKKIEEENPGKPVGYVPESAGGSA [r2_27_JUSTAS] | 0.293 ± 0.093 | 0.281 ± 0.17 | 0.0963 ± 0.17
8 | SAGWIMINSPEDAERIVEELRKLLPPGYKIDVEPMPNGSVMIEFENPEEGREIKIHYDRRNGMYWIEPVSAG [r5_358_TrROS] | 2.58 ± 0.13 | 2.59 ± 0.11 | 2.54 ± 0.079
9 | SAEEPEVVRLEIRITVVERDEDGRLREREVTLEVEVLPDGRVVIRVDGRVFVIDLETGELVEVLEDVEPSAG [r14_821_TrROS_Hall] | 3.77 ± 0.099 | 4.02 ± 0.089 | 4.14 ± 0.081
10 | SAGGYIPASARIEVLEVFEDGTVRVRVTYPDGSEAEVVARLVRTADGRVYLEIFDPRTGRLLATLELTSAGG [r13_527_TrMRF] | 4.09 ± 0.09 | 3.88 ± 0.092 | 3.81 ± 0.054
11 | SAKTVTLKVTLEIEINGVRVKVEATLTLELDENGELKLTLELKIEIEPAPPPKEVKLTEEEKKKLEELKSAG [r14_442_TrROS_Hall] | 2.44 ± 0.23 | 3.25 ± 0.69 | 3.79 ± 0.2
12 | SMTIRVEGVPPGVTAEELAARLRAELEAAGYEVTSIKVTRRADGSLVVEIEVKPAPPPEPVEVVEEREEESA [r9_953_TrROS_Hall] | 3.4 ± 0.13 | 3.62 ± 0.17 | 3.75 ± 0.16
13 | SAGMVIPILLKPEPERPEEVEKKAIEFANKLKPLNLPNVKIKVYRAPYVDPETGKTTVLYLVLIEVEPPSAG [r5_49_TrMRF] | 1.83 ± 0.1 | 2.4 ± 0.19 | 2.79 ± 0.13
14 | SAGGPPVTLTLTLTFTETRTVRNPATGETVTVEKVTLTLTITLEPGMSKEQLEALLKELRELFPSLESAGGS [r8_306_TrROS_Hall] | 3.53 ± 0.25 | 5.11 ± 0.29 | 5.15 ± 0.28
15 | SAGGSAGGSAPDNVEIEVYELPAGMYRVKIWPPGGNRHEFNFPPGEPKKIKIPPGVSIEIWPFSAGGSAGGS [r12_517_TrROS] | 0.462 ± 0.15 | 0.743 ± 0.22 | 0.763 ± 0.29
16 | SEGSVRLEFTFTLPDGTRLTVEVTVHYDAATGEFHVSVSVRVEPLPDTSRPWEERPVRLPDGTWVSAADLSA [r9_898_TrMRF] | 2.54 ± 0.071 | 2.5 ± 0.13 | 2.28 ± 0.1
17 | SMKLIGVEEFENAKAVLFEKEDKYIKLVFIPEDIPEGEEIYYIKVFEGDEIIEEKAVKPEEIEEAIKEAGSA [r9_57_TrMRF] | 0.00129 ± 0.12 | 0.428 ± 0.21 | 0.643 ± 0.21
18 | SAGGSAGGSTIDITLPDLDEEEIREYLKELFPDVEVTIEYDPSTNTYTLKVGGDEVVVTRLPPNSAGGSAGG [r6_609_JUSTAS] | 3.25 ± 0.086 | 3.43 ± 0.057 | 3.43 ± 0.038
19 | SAGGSITKTLGTEEKGDKTITYSVTTSPEGKITFTTTTKTPSGSGTSTTTTTTTTPLAGLPLPPLGGSAGGS [r8_458_JUSTAS] | 0.473 ± 0.042 | 0.717 ± 0.19 | 0.831 ± 0.18
20 | SAGGSAGGMTLEIEVNGKKIKIEVIKDKETNRYFVRITVDGKEVLIEADSKEDALKAIKELLKKSAGGSAGG [r6_715_TrROS_Hall] | 2.93 ± 0.059 | 4.12 ± 0.077 | 4.42 ± 0.076
21 | SAGGSAGGSAGSPLAQAVIDELKAQGYTVEAVTVTQPPGNAPVVVVTVKKPDGTRVVIDLSAGGSAGGSAGG [r11_780_JUSTAS] | 2.74 ± 0.12 | 2.39 ± 0.07 | 2.182 ± 0.016

Row | Sequence | folding stability dG unfold [1] [kcal/mol] | folding stability dG unfold [2] [kcal/mol] | folding stability dG unfold [3] [kcal/mol]
22 | SAGGSPWIFVIKIEWEPRDPDGKKKKYEYSIVITATPNQLDELLEQIKKAPPGYKIKEVKIEVFPFSAGGSA [r2_75_TrROS] | 2.65 ± 0.18 | 3.82 ± 0.21 | 4.21 ± 0.086
23 | SAGPVTIPIFYRVPPGEPMTPEAKEFAIELAKYIARLFPPGYKIEIDSIEWERHPNYYYFRVTIEIEPPSAG [r5_121_TrROS] | 3.64 ± 0.16 | 3.62 ± 0.27 | 3.8 ± 0.085
24 | SAGMITVPLPDGSVLELTVEKETVTTEVDPSTGKKRLVTETLMTNTGDLAVNGKVSPTTATLTTVVLESAGG [r19_246_JUSTAS] | -0.36 ± 0.067 | 0.155 ± 0.069 | 0.373 ± 0.045
25 | SDIEIERDPNMIRIEHTYPFDNYRVKISLYVMVGPDGQFMLMIPIEIELPPPPPTPEKDPNGKEKWKPDASA [r9_456_TrROS] | 2.67 ± 0.21 | 3.85 ± 0.53 | 4.27 ± 0.21
26 | SAGGSAGGITIRDPDNGIEVKILKITPNHMIIQAEFPNGRNYMIEMPPDSLKPGDEIPMTVHPVSAGGSAGG [r6_152_TrROS] | -0.008 ± 0.17 | -0.148 ± 0.3 | -0.14 ± 0.41
27 | SAGGPYEFWFTITIDYPDLTPKQAVEEARKILRKLGFEITDIPVQVDPDPGWITVMARITIRPPEDASAGGS [r16_287_TrROS] | 3.31 ± 0.063 | 3.58 ± 0.16 | 3.98 ± 0.044
28 | SAGGSAGGSAGGSMYTLLSTENRPDPNSSKPVTTKTYKLPDGSTVVVTEYPDSVEEKPLVSAGGSAGGSAGG [r7_479_JUSTAS] | -0.00111 ± 0.087 | 0.182 ± 0.25 | -0.122 ± 0.63
29 | SAGGSSGSMSPVLSLFEPGTGVVTYLLKKNDKLYLLVSTGSPGVPPVPSSVSPANLAAGDPVWATAGSAGGS [r16_809_JUSTAS] | -0.924 ± 0.26 | 0.353 ± 0.1 | 0.77 ± 0.13
30 | SAGMTIEIEIPASTSAEEAVERVEAIVEEVRKAGKKFELTIKTSDPALAAAVRAALEAAGVPVTVEVDSAGG [r19_268_JUSTAS] | 4.07 ± 0.12 | 3.28 ± 0.066 | 2.48 ± 0.033
31 | SAGGSAGGSAGDLLKEALEEAKKAGIKTATITVEVDGKLYTLTVKLEPKPPPKEVKVEKKSAGGSAGGSAGG [r17_475_TrROS_Hall] | -0.977 ± 0.51 | 0.526 ± 0.38 | 0.814 ± 0.17
32 | SPVLEKIRKLVEELLKKLGIEVKEGETVEIEITLPDGSTIRITFDAKTKKITVEITIDGKKVTLTLEIKPSA [r9_426_TrROS_Hall] | 4.2 ± 0.3 | > 6 | 5.68 ± 0.72
33 | SAGGSAGGSAGGMVITVPKENLKELIDALRKEGKARIVSVEEKDGLVTITVELEDEELESAGGSAGGSAGGS [r10_695_TrROS_Hall] | 3.24 ± 0.18 | 2.95 ± 0.11 | 2.28 ± 0.075
34 | SAGGSAGGSAMPFRVKVPPGSRVLVTRYLPGGLEREEVELSEDEDELVVEAESGVVEVRVLDSAGGSAGGSA [r18_124_TrMRF] | 0.938 ± 0.07 | 0.977 ± 0.21 | 0.969 ± 0.28
35 | SAGGSAGGSAGGSTILILDPETKKLYLIRIEKREDGKEELKLKVYEFDLKTGEMKEYELSAGGSAGGSAGGS [r10_1041_TrROS_Hall] | 3.25 ± 0.2 | 4.15 ± 0.19 | 4.68 ± 0.19
36 | SAGGSAGGSSGMVKAEFGLVAPDGTPVSTRTLTFSSEEEIEEALAALPEFSLALVPDVKRGPLSAGGSAGGS [r12_182_JUSTAS] | -0.586 ± 0.38 | 0.51 ± 0.14 | 0.86 ± 0.13
37 | SKDPNNEWVVIKFEVTIPVPPGQKPITADEIASQVRQIMQNHGMEITSVEVEYRGNQVTVSVEIVIPKKASA [r9_1134_TrROS] | 3.23 ± 0.19 | 3.22 ± 0.18 | 3.32 ± 0.11
38 | SAGGSAGGSAGMGVPPDGATLRFTYPESPSSTRTFTSPEEAAAWIAANLPPEHSVSFSPASAGGSAGGSAGG [r11_983_JUSTAS] | 0.25 ± 0.1 | 0.684 ± 0.084 | 0.863 ± 0.12
39 | SAGGSAGGMIIRITTKNGKTLEIKAKSLEEAKAAIAEKLGLSKENIKPEDITKVEIYSEEELKESAGGSAGG [r6_586_TrROS_Hall] | 2.95 ± 0.17 | 3.12 ± 0.16 | 3.28 ± 0.15
40 | SAGGSAGGSAGSSVKTYTGKGKKITITKLDNGTYIVTTPDKTSTYPPSVSEEEVIKKALESAGGSAGGSAGG [r17_272_JUSTAS] | 0.506 ± 0.093 | 0.282 ± 0.17 | -0.0797 ± 0.44
41 | SAGGLLVADEAGVPLSPVPPVPPIPVQVTFPDGTKVTIEYYPGLNEVKVEYEGDDPAKVAEIVKEILKSAGG [r13_701_JUSTAS] | 0.146 ± 0.15 | 0.443 ± 0.13 | 0.444 ± 0.11
42 | SPSTTIPQTITLDTKLPNGKPATPEEVKAIAEEIVKKLEKEKGVKISINVKVTPVDSSGKYKLDITITIIKS [r1_231_JUSTAS] | 2.14 ± 0.047 | 2.59 ± 0.11 | 2.81 ± 0.072
